Biological target: bovine fetuin (bovine) (UniProt P12763)
Experiment: Corning Epic label-free (resonant waveguide grating, Enspire reader)

Row | Substance | response (change in wavelength) at 20 μg/ml rHA
1 | recombinant hemagglutinin (rHA) of A/Brisbane/59/2007 (H1N1) (natural protein; modification not given) | 80 pm
2 | recombinant hemagglutinin (rHA) of A/Hangzhou/3/2013 (H7N9) (natural protein) | 80 pm
3 | recombinant hemagglutinin (rHA) of B/Brisbane/60/2008 (natural protein) | 140 pm
